{
  "source": "patent US20120207760A1",
  "key": {"[1]": {"target": "hemagglutinin (HA) on live influenza A virus A/Wisconsin/67/05 H3N2 (Influenza A virus A/Wisconsin/67/2005 (H3N2))", "assay": "cell-based or functional assay"}, "[2]": {"target": "hemagglutinin (HA) on live influenza A virus A/California/4/09 H1N1 (Influenza A virus A/California/04/2009 (H1N1))", "assay": "cell-based or functional assay"}, "[3]": {"target": "hemagglutinin (HA) on live influenza A virus A/Solomon Islands/3/06 H1N1 (Influenza A virus A/Solomon Islands/3/2006 (H1N1))", "assay": "cell-based or functional assay"}, "[4]": {"target": "hemagglutinin (HA) of influenza A/Solomon Islands/3/06 H1N1 (Influenza A virus A/Solomon Islands/3/2006 (H1N1))", "assay": "ELISA, inactivated whole virions coated; transfection supernatant set 5"}, "[5]": {"target": "hemagglutinin (HA) of influenza A/Wisconsin/67/05 H3N2 (Influenza A virus A/Wisconsin/67/2005 (H3N2))", "assay": "ELISA, inactivated whole virions coated; transfection supernatant set 5"}, "[6]": {"target": "hemagglutinin (HA) of influenza A/Solomon Islands/3/06 H1N1 (Influenza A virus A/Solomon Islands/3/2006 (H1N1))", "assay": "ELISA, inactivated whole virions coated; transfection supernatant set 3"}, "[7]": {"target": "hemagglutinin (HA) of influenza A/Japan/305/57 H2N2 (Influenza A virus A/Japan/305/1957 (H2N2)) (UniProt P03451)", "assay": "ELISA, inactivated whole virions coated; transfection supernatant set 3"}, "[8]": {"target": "hemagglutinin (HA) of influenza A/Wisconsin/67/05 H3N2 (Influenza A virus A/Wisconsin/67/2005 (H3N2))", "assay": "ELISA, inactivated whole virions coated; transfection supernatant set 3"}, "[9]": {"target": "recombinant soluble homotrimeric HA of A/chicken/Vietnam/NCVD-016/08 - H5N1 (Influenza A virus A/chicken/Vietnam/NCVD-016/2008 (H5N1))", "assay": "micro-array; captured IgG, V5-tagged trimeric HA"}, "[10]": {"target": "recombinant soluble homotrimeric HA of A/duck/Yangzhou/02/2005 - H8N4 (Influenza A virus A/duck/Yangzhou/02/2005 (H8N4))", "assay": "micro-array; captured IgG, V5-tagged trimeric HA"}, "[11]": {"target": "recombinant soluble homotrimeric HA of A/Hong Kong/156/97 - H5N1 (Influenza A virus A/Hong Kong/156/97 (H5N1))", "assay": "micro-array; captured IgG, V5-tagged trimeric HA"}, "[12]": {"target": "recombinant soluble homotrimeric HA of A/Egypt/3300-NAMRU3/08 - H5N1 (Influenza A virus A/Egypt/3300-NAMRU3/2008 (H5N1))", "assay": "micro-array; captured IgG, V5-tagged trimeric HA"}, "[13]": {"target": "recombinant soluble homotrimeric HA of A/northern shoveler/California/HKWF115/2007 - H6N1 (Influenza A virus A/northern shoveler/California/HKWF115/2007 (H6N1))", "assay": "micro-array; captured IgG, V5-tagged trimeric HA"}, "[14]": {"target": "recombinant soluble homotrimeric HA of A/Anhui/1/05 - H5N1 (Influenza A virus A/Anhui/1/2005 (H5N1))", "assay": "micro-array; captured IgG, V5-tagged trimeric HA"}, "[15]": {"target": "recombinant soluble homotrimeric HA of A/Netherlands/219/03 - H7N7 (Influenza A virus A/Netherlands/219/03 (H7N7))", "assay": "micro-array; captured IgG, V5-tagged trimeric HA"}, "[16]": {"target": "hemagglutinin (HA) of influenza A/Solomon Islands/3/06 H1N1 (Influenza A virus A/Solomon Islands/3/2006 (H1N1))", "assay": "ELISA, inactivated whole virions coated; transfection supernatant set 1"}, "[17]": {"target": "hemagglutinin (HA) of influenza A/Wisconsin/67/05 H3N2 (Influenza A virus A/Wisconsin/67/2005 (H3N2))", "assay": "ELISA, inactivated whole virions coated; transfection supernatant set 1"}, "[18]": {"target": "recombinant homotrimeric HA, A/Egypt/3300-NAMRU3/08 H5N1 (Influenza A virus A/Egypt/3300-NAMRU3/08 (H5N1))", "assay": "trimeric HA microarray, transfection set 1"}, "[19]": {"target": "recombinant homotrimeric HA, A/chicken/Vietnam/NCVD-016/08 H5N1 (Influenza A virus A/chicken/Vietnam/NCVD-016/08 (H5N1))", "assay": "trimeric HA microarray, transfection set 1"}, "[20]": {"target": "recombinant homotrimeric HA, A/Netherlands/219/03 H7N7 (Influenza A virus A/Netherlands/219/03 (H7N7))", "assay": "trimeric HA microarray, transfection set 1"}, "[21]": {"target": "recombinant homotrimeric HA, A/Vietnam/1203/04 H5N1 (Influenza A virus A/Vietnam/1203/04 (H5N1))", "assay": "trimeric HA microarray, transfection set 1"}, "[22]": {"target": "recombinant homotrimeric HA, A/Wisconsin/67/05 H3N2 (Influenza A virus A/Wisconsin/67/05 (H3N2))", "assay": "trimeric HA microarray, transfection set 1"}, "[23]": {"target": "recombinant homotrimeric HA, A/Indonesia/5/05 H5N1 (Influenza A virus A/Indonesia/5/05 (H5N1))", "assay": "trimeric HA microarray, transfection set 1"}, "[24]": {"target": "recombinant homotrimeric HA, A/Japan/305/57 H2N2 (Influenza A virus A/Japan/305/57 (H2N2))", "assay": "trimeric HA microarray, transfection set 1"}, "[25]": {"target": "recombinant homotrimeric HA, A/common magpie/Hong Kong/5052/07 H5N1 (Influenza A virus A/common magpie/Hong Kong/5052/07 (H5N1))", "assay": "trimeric HA microarray, transfection set 1"}, "[26]": {"target": "recombinant homotrimeric HA, A/duck/Yangzhou/02/05 H8N4 (Influenza A virus A/duck/Yangzhou/02/2005 (H8N4))", "assay": "trimeric HA microarray, transfection set 1"}, "[27]": {"target": "recombinant homotrimeric HA, A/northern shoveler/California/HKWF115/07 (Influenza A virus A/northern shoveler/California/HKWF115/2007 (H6N1))", "assay": "trimeric HA microarray, transfection set 1"}, "[28]": {"target": "recombinant homotrimeric HA, A/Hong Kong/1073/99 H9N2 (Influenza A virus A/Hong Kong/1073/99 (H9N2))", "assay": "trimeric HA microarray, transfection set 1"}, "[29]": {"target": "recombinant homotrimeric HA, A/California/4/09 H1N1 (Influenza A virus A/California/4/09 (H1N1))", "assay": "trimeric HA microarray, transfection set 1"}, "[30]": {"target": "recombinant homotrimeric HA, A/Solomon Islands/3/06 H1N1 (Influenza A virus A/Solomon Islands/3/06 (H1N1))", "assay": "trimeric HA microarray, transfection set 1"}, "[31]": {"target": "recombinant homotrimeric HA, A/Anhui/1/05 H5N1 (Influenza A virus A/Anhui/1/05 (H5N1))", "assay": "trimeric HA microarray, transfection set 1"}},
  "note": "“And” between values parts separate entries of the source, which are not always exact repeats. Identical values can stand only once.",
  "data": [
    {"substance": "TCN-202 (2N9) (antibody)", "values": [
      {"measurement": "% Neutralization", "setting": "[1]", "result": "17.8% and 0%"},
      {"measurement": "% Neutralization", "setting": "[2]", "result": 0, "unit": "%"},
      {"measurement": "% Neutralization", "setting": "[3]", "result": "0% and 7%"},
      {"measurement": "OD450", "setting": "[4]", "result": 0.07, "unit": "OD450"},
      {"measurement": "OD450", "setting": "[5]", "result": 0.07, "unit": "OD450"},
      {"measurement": "OD450", "setting": "[6]", "result": 0.1, "unit": "OD450"},
      {"measurement": "OD450", "setting": "[7]", "result": 0.08, "unit": "OD450"},
      {"measurement": "OD450", "setting": "[8]", "result": 0.08, "unit": "OD450"},
      {"measurement": "Trimeric HA Binding: RLU", "setting": "[9]", "result": 2570, "unit": "RLU"},
      {"measurement": "Trimeric HA Binding: RLU", "setting": "[10]", "result": 13800, "unit": "RLU"},
      {"measurement": "Trimeric HA Binding: RLU", "setting": "[11]", "result": 945, "unit": "RLU"},
      {"measurement": "Trimeric HA Binding: RLU", "setting": "[12]", "result": 13900, "unit": "RLU"},
      {"measurement": "Trimeric HA Binding: RLU", "setting": "[13]", "result": 3040, "unit": "RLU"},
      {"measurement": "Trimeric HA Binding: RLU", "setting": "[14]", "result": 10000, "unit": "RLU"},
      {"measurement": "Trimeric HA Binding: RLU", "setting": "[15]", "result": 18000, "unit": "RLU"},
      {"measurement": "OD450", "setting": "[16]", "result": 0.07, "unit": "OD450"},
      {"measurement": "OD450", "setting": "[17]", "result": 0.07, "unit": "OD450"},
      {"measurement": "Trimeric HA Binding RLU", "setting": "[18]", "result": 76, "unit": "RLU"},
      {"measurement": "Trimeric HA Binding RLU", "setting": "[19]", "result": 14, "unit": "RLU"},
      {"measurement": "Trimeric HA Binding RLU", "setting": "[20]", "result": 55, "unit": "RLU"},
      {"measurement": "Trimeric HA Binding RLU", "setting": "[21]", "result": 37, "unit": "RLU"},
      {"measurement": "Trimeric HA Binding RLU", "setting": "[22]", "result": 27, "unit": "RLU"},
      {"measurement": "Trimeric HA Binding RLU", "setting": "[23]", "result": 57, "unit": "RLU"},
      {"measurement": "Trimeric HA Binding RLU", "setting": "[24]", "result": 27, "unit": "RLU"},
      {"measurement": "Trimeric HA Binding RLU", "setting": "[25]", "result": 21, "unit": "RLU"},
      {"measurement": "Trimeric HA Binding RLU", "setting": "[26]", "result": 26, "unit": "RLU"},
      {"measurement": "Trimeric HA Binding RLU", "setting": "[27]", "result": 13, "unit": "RLU"},
      {"measurement": "Trimeric HA Binding RLU", "setting": "[28]", "result": 21, "unit": "RLU"},
      {"measurement": "Trimeric HA Binding RLU", "setting": "[29]", "result": 20, "unit": "RLU"},
      {"measurement": "Trimeric HA Binding RLU", "setting": "[30]", "result": 67, "unit": "RLU"},
      {"measurement": "Trimeric HA Binding RLU", "setting": "[31]", "result": 20, "unit": "RLU"}
    ]}
  ]
}
